Assay results reported in patent US7390643B2, “Geranyl diphosphate synthase molecules, and nucleic acid molecules encoding same” (Washington State University Research Foundation, priority 2002, dated 2008).

Substrate: C=C(C)CCO[P@@](=O)(O)OP(=O)(O)O
Test: Turnover rate of heterotetrameric Mentha GPP synthase (comparison)
Format: biochemical
Conditions: other: assuming two functional active sites

B1: Mentha GPP synthase, heterotetrameric (dimer of heterodimers) (Mentha x piperita) (protein)
chain: MSALVNPVAKWPQTIGVKDVHGGRRRRSRSTLFQSHPLRTEMPFSLYFSSPLKAPATFSVSAVYTKEGSEIRDKDPAPSTSPAFDFDGYMLRKAKSVNKALEAAVQMKEPLKIHESMRYSLLAGGKRVRPMLCIAACELVGGDESTAMPAACAVEMIHTMSLMHDDLPCMDNDDLRRGKPTNHMAFGESVAVLAGDALLSFAFEHVAAATKGAPPERIVRVLGELAVSIGSEGLVAGQVVDVCSEGMAEVGLDHLEFIHHHKTAALLQGSVVLGAILGGGKEEEVAKLRKFANCIGLLFQVVDDILDVTKSSKELGKTAGKDLVADKTTYPKLIGVEKSKEFADRLNREAQEQLLHFHPHRAAPLIALANYIAYRDN
notes: probably E. coli, C-terminal His8 tag, transit peptide deleted
B1 gave a kcat of 2.4 s⁻¹.
